± gives the uncertainty stated by the source.
Experiment: self-splicing fitness, log relative to wild type (ln ratio); higher = more splicing; Tetrahymena group I intron in knt gene, E. coli kanamycin selection, DiMSum; sequences stand for … in CUCUCU…GGAGGGAAAAGUUAUCAGGCAUGCACCUGGUAGCUAGUCUUUAAACCAAUAGAUUGCAUCGGUUUAAAAGGCAAGACCGUCAAAUUGCGGGAAAGGGGUCAACAGCCGUUCAGUACCAAGUCUCAGGGGAAACUUUGAGAUGGCCUUGCAAAGGGUAUGGUAAUAAGCUGACGGACAUGGUCCUAACCACGCAGCCAAGUCCUAAGUCAACAGAUCUUCUGUUGAUAUGGAUGCAGUUCACAGACUAAAUGUCGGUCGGGGAAGAUGUAUUCUUCUCAUAAGAUAUAGUCGGACCUCUCCUUAAUGGGAGCUAGCGGAUGAAGUGAUGCAACACUGGAGCCGCUGGGAACUAAUUUGUAUGCGAAAGUAUAUUGAUUAGUUUUGGAGUACUCGUGGUCG
Summary of the method: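 Library with all eight P1ex-region intron nucleotides randomised, intron inside the knt kanamycin-resistance gene on pET-22b(+), in E. coli BL21(DE3). Cells grew overnight at 37°C or 30°C on LB agar with or without 25 μg/mL kanamycin (plus 100 μg/mL carbenicillin, 50 μM IPTG, 0.2% rhamnose), in six replicate transformations. Pooled colonies were amplicon-sequenced on Illumina HiSeq 2500. DiMSum fitness is the error-weighted combination of wild-type-normalised replicate fold changes, kanamycin versus none.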

| Sequence | self-splicing fitness (ln) (30 °C) | self-splicing fitness (ln) (37 °C) |
| --- | --- | --- |
| GGCUAGCAAUAUUACGCGGC | -3.55 ± 0.43 | -2.19 ± 0.46 |
| GGCUAGCAAUAUUACGCUAA | -0.801 ± 0.2 | -0.34 ± 0.15 |
| GGCUAGCAAUAUUACGCUGA | -1.18 ± 0.12 | -0.413 ± 0.13 |
| GGCUAGCAAUAUUACGGAUG | -0.642 ± 0.13 | -0.56 ± 0.15 |
| GGCUAGCAAUAUUACGUAUG | -2.06 ± 0.13 | -0.678 ± 0.13 |
| GGCUAGCAAUAUUACGUGCA | 0.326 ± 0.14 | 0.0604 ± 0.18 |
| GGCUAGCAAUAUUACGUGUG | -0.503 ± 0.085 | -0.362 ± 0.083 |
| GGCUAGCAAUAUUACGUUGG | -2.34 ± 0.16 | -3.24 ± 0.32 |
| GGGAAGCAAUAUUACGACUC | -1.17 ± 0.1 | -0.341 ± 0.13 |
| GGGAAGCAAUAUUACGAUUA | -1.56 ± 0.21 | -0.805 ± 0.18 |
| GGGAAGCAAUAUUACGCAAU | -2.67 ± 0.17 | -1.42 ± 0.19 |
| GGGAAGCAAUAUUACGCACG | -0.766 ± 0.16 | -0.128 ± 0.18 |
| GGGAAGCAAUAUUACGCAGA | -3.81 ± 0.42 | -1.65 ± 0.27 |
| GGGAAGCAAUAUUACGCAGC | -1.29 ± 0.14 | -1.12 ± 0.19 |
| GGGAAGCAAUAUUACGCAGU | -2 ± 0.13 | 0.176 ± 0.14 |
| GGGAAGCAAUAUUACGCAUG | -1.38 ± 0.16 | -0.366 ± 0.2 |
| GGGAAGCAAUAUUACGCCAA | -1.66 ± 0.095 | -0.896 ± 0.1 |
| GGGAAGCAAUAUUACGCGCG | -0.57 ± 0.13 | -0.552 ± 0.14 |
| GGGAAGCAAUAUUACGCGGA | -2.82 ± 0.23 | -1.44 ± 0.18 |
| GGGAAGCAAUAUUACGCUUC | -3.32 ± 0.4 | – |
| GGGAAGCAAUAUUACGCUUU | -3.54 ± 0.24 | – |
| GGGAAGCAAUAUUACGGAGG | -2.91 ± 0.41 | -1.99 ± 0.35 |
| GGGAAGCAAUAUUACGGAUA | – | -1.38 ± 0.42 |
| GGGAAGCAAUAUUACGGCCA | -0.752 ± 0.14 | -0.611 ± 0.19 |
| GGGAAGCAAUAUUACGGCGG | -1.2 ± 0.14 | -1.94 ± 0.24 |

| Sequence | self-splicing fitness (ln) (30 °C) | self-splicing fitness (ln) (37 °C) |
| --- | --- | --- |
| GGGAAGCAAUAUUACGGCUU | -2.11 ± 0.2 | -1.41 ± 0.23 |
| GGGAAGCAAUAUUACGGGGA | -1.49 ± 0.2 | -2.65 ± 0.29 |
| GGGAAGCAAUAUUACGGUCU | -1.58 ± 0.086 | 0.382 ± 0.11 |
| GGGAAGCAAUAUUACGUAAG | -1.09 ± 0.086 | -1.14 ± 0.13 |
| GGGAAGCAAUAUUACGUAGU | -3.38 ± 0.18 | -2.18 ± 0.17 |
| GGGAAGCAAUAUUACGUCCG | -1.81 ± 0.15 | -0.461 ± 0.18 |
| GGGAAGCAAUAUUACGUGAU | -2.04 ± 0.1 | -1.83 ± 0.16 |
| GGGAAGCAAUAUUACGUUAA | -2.82 ± 0.18 | -1.73 ± 0.19 |
| GGGCAGCAAUAUUACGAAUC | -0.438 ± 0.15 | -0.491 ± 0.21 |
| GGGCAGCAAUAUUACGAGCA | -1.98 ± 0.1 | -1.37 ± 0.11 |
| GGGCAGCAAUAUUACGAGUG | -3.47 ± 0.24 | -1.64 ± 0.13 |
| GGGCAGCAAUAUUACGCAAC | -0.812 ± 0.16 | -1.56 ± 0.13 |
| GGGCAGCAAUAUUACGCACA | -0.436 ± 0.23 | 0.448 ± 0.23 |
| GGGCAGCAAUAUUACGCGCC | -3.31 ± 0.18 | -2.82 ± 0.28 |
| GGGCAGCAAUAUUACGCGUC | -2.55 ± 0.4 | -1.71 ± 0.31 |
| GGGCAGCAAUAUUACGCUAU | -1.13 ± 0.077 | -0.411 ± 0.094 |
| GGGCAGCAAUAUUACGGAAG | -3.03 ± 0.23 | -1.02 ± 0.17 |
| GGGCAGCAAUAUUACGGAAU | -1.49 ± 0.11 | -1.3 ± 0.19 |
| GGGCAGCAAUAUUACGGAUA | -2.63 ± 0.17 | -1.8 ± 0.13 |
| GGGCAGCAAUAUUACGGGCG | -0.318 ± 0.088 | -0.0663 ± 0.1 |
| GGGCAGCAAUAUUACGGUCC | -4.03 ± 0.46 | -2.14 ± 0.28 |
| GGGCAGCAAUAUUACGGUUC | -1.53 ± 0.11 | -1.93 ± 0.13 |
| GGGCAGCAAUAUUACGUCAU | -0.717 ± 0.066 | 0.195 ± 0.076 |
| GGGCAGCAAUAUUACGUCGA | -0.0821 ± 0.07 | 0.711 ± 0.1 |
| GGGCAGCAAUAUUACGUGCA | -1.62 ± 0.079 | 0.116 ± 0.098 |

| Sequence | self-splicing fitness (ln) (30 °C) | self-splicing fitness (ln) (37 °C) |
| --- | --- | --- |
| GGGCAGCAAUAUUACGUGGC | -3.12 ± 0.25 | -2.21 ± 0.26 |
| GGGCAGCAAUAUUACGUUAA | -1.19 ± 0.1 | -0.46 ± 0.11 |
| GGGCAGCAAUAUUACGUUUA | -1.09 ± 0.069 | -0.227 ± 0.094 |
| GGGGAGCAAUAUUACGAACG | – | -1.11 ± 0.36 |
| GGGGAGCAAUAUUACGAUAC | -2.37 ± 0.3 | -0.552 ± 0.27 |
| GGGGAGCAAUAUUACGAUUC | -1.52 ± 0.16 | -0.791 ± 0.2 |
| GGGGAGCAAUAUUACGCCCA | -1.14 ± 0.19 | -0.0692 ± 0.27 |
| GGGGAGCAAUAUUACGCUAA | – | 0.376 ± 0.38 |
| GGGGAGCAAUAUUACGCUGA | -3.2 ± 0.16 | -2.33 ± 0.2 |
| GGGGAGCAAUAUUACGGCAA | -2.04 ± 0.33 | -0.565 ± 0.25 |
| GGGGAGCAAUAUUACGGCGA | -2.4 ± 0.26 | -1.81 ± 0.24 |
| GGGGAGCAAUAUUACGGGUU | -2.84 ± 0.22 | -2.2 ± 0.39 |
| GGGGAGCAAUAUUACGGUCC | -1.26 ± 0.46 | – |
| GGGGAGCAAUAUUACGUCAA | -2.48 ± 0.3 | -3.16 ± 0.35 |
| GGGGAGCAAUAUUACGUCCA | -0.767 ± 0.12 | -0.145 ± 0.22 |
| GGGGAGCAAUAUUACGUUAC | -3.54 ± 0.38 | -1.07 ± 0.26 |
| GGGGAGCAAUAUUACGUUGU | – | -1.82 ± 0.28 |
| GGGGAGCAAUAUUACGUUUA | -2.13 ± 0.28 | -2.77 ± 0.48 |
| GGGUAGCAAUAUUACGAACU | -0.832 ± 0.27 | -0.534 ± 0.19 |
| GGGUAGCAAUAUUACGAUCU | -1.64 ± 0.092 | -0.576 ± 0.11 |
| GGGUAGCAAUAUUACGCCGA | -0.784 ± 0.16 | -0.0895 ± 0.11 |
| GGGUAGCAAUAUUACGGACU | -0.272 ± 0.19 | 0.331 ± 0.24 |
| GGGUAGCAAUAUUACGGCAA | -0.369 ± 0.24 | -0.33 ± 0.28 |
| GGGUAGCAAUAUUACGGGCC | -2.03 ± 0.38 | – |
| GGGUAGCAAUAUUACGGGCG | -0.346 ± 0.098 | -0.12 ± 0.13 |

| Sequence | self-splicing fitness (ln) (30 °C) | self-splicing fitness (ln) (37 °C) |
| --- | --- | --- |
| GGGUAGCAAUAUUACGGUGU | -1.09 ± 0.095 | -0.365 ± 0.12 |
| GGGUAGCAAUAUUACGUACA | -1.34 ± 0.2 | -0.763 ± 0.21 |
| GGGUAGCAAUAUUACGUACG | -0.676 ± 0.23 | -0.536 ± 0.29 |
| GGGUAGCAAUAUUACGUAGU | -2.23 ± 0.085 | -0.762 ± 0.093 |
| GGGUAGCAAUAUUACGUCUU | -0.106 ± 0.1 | 0.268 ± 0.14 |
| GGGUAGCAAUAUUACGUUUC | -2.16 ± 0.12 | -0.68 ± 0.15 |
| GGUAAGCAAUAUUACGAACC | – | -1.64 ± 0.42 |
| GGUAAGCAAUAUUACGAAUU | -1.04 ± 0.11 | -0.205 ± 0.14 |
| GGUAAGCAAUAUUACGACAG | -2.56 ± 0.29 | -1.99 ± 0.44 |
| GGUAAGCAAUAUUACGACUA | 0.407 ± 0.12 | -0.574 ± 0.12 |
| GGUAAGCAAUAUUACGAGCU | -3.03 ± 0.35 | -1.36 ± 0.25 |
| GGUAAGCAAUAUUACGAGUA | -2.4 ± 0.21 | -1.03 ± 0.14 |
| GGUAAGCAAUAUUACGAUGG | -3.83 ± 0.39 | -2.64 ± 0.33 |
| GGUAAGCAAUAUUACGCAAA | -2.37 ± 0.22 | -1.15 ± 0.17 |
| GGUAAGCAAUAUUACGCAGU | -1.51 ± 0.17 | -1.55 ± 0.24 |
| GGUAAGCAAUAUUACGCAUA | -1.19 ± 0.15 | 0.0315 ± 0.17 |
| GGUAAGCAAUAUUACGCGCC | -2.99 ± 0.33 | -1.48 ± 0.29 |
| GGUAAGCAAUAUUACGCUCA | -0.326 ± 0.26 | -0.105 ± 0.48 |
| GGUAAGCAAUAUUACGCUGC | -2.94 ± 0.2 | – |
| GGUAAGCAAUAUUACGCUUC | -4.14 ± 0.42 | -1.58 ± 0.35 |
| GGUAAGCAAUAUUACGGAAG | -3.03 ± 0.18 | -2.56 ± 0.26 |
| GGUAAGCAAUAUUACGGAGC | -2.99 ± 0.2 | -1.98 ± 0.22 |
| GGUAAGCAAUAUUACGGCAA | -0.143 ± 0.12 | -0.18 ± 0.15 |

— the supplement of paper PMC7877785
